Biological target: T1, cytosolic fragment of human STX4 (residues 1-271 with 272C) (human, UniProt Q12846 1-271)
T1 construct: human STX4 lacking the transmembrane domain, residues 1-271; synthetic gene in NdeI/XhoI of pET28a(+); cysteine at position 272 ('residues 1-271 with 272C')
T1 chain: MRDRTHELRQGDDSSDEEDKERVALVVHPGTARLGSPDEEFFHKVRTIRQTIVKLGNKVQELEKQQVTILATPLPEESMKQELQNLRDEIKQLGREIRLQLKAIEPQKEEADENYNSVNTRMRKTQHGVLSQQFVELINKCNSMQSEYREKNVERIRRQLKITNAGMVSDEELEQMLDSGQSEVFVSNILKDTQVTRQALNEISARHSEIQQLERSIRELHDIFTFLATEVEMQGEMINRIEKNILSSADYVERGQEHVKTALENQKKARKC
Experiment: SEC; 100 mM (so in the source) of each protein mixed, overnight at RT; ENrich SEC 70 column in 20 mM HEPES pH 7.4, 100 mM NaCl, 0.2 mM TCEP, 1% CHAPS
Settings: both partners purified

B1: VAMP2(49-96) (domain or fragment, UniProt P63045 49-96, looked up)
chain: NVDKVLERDQKLSELDDRADALQAGASQFETSAAKLKRKYWWKNLKMM
notes: VAMP2, C-terminal half of the SNARE motif, residues 49-96; construct described previously (Pobbati, Stein and Fasshauer, 2006); that fragment is, as far as I recall, from rat; also called C-terminal half of the SNARE motif of VAMP2 (residues 49-96)
B1: binds.

Source: doi:10.1101/2023.07.13.548819, “Trafficking Machinery is Rapidly Primed to Facilitate Polarised IL-6 Secretion in Dendritic Cells” (bioRxiv, 2023)
